Test results: the supplement of paper PMC9170038

Test system: MS2 coat protein
Assay: apparent KD of MS2 coat protein; higher = weaker reporter binding
Conditions: Eterna round: R107
Outline: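 Apparent KD is reported per design as the median of normalised binding-curve fits across its clusters. The RNA switches were made by on-chip transcription from Illumina sequencing clusters. SNAP-549-labelled MS2 coat protein was then added in twofold steps (0.7 or 1.5 nM to 3 µM; 0.8–1.5 h to 10–20 min per step) in 100 mM Tris-HCl pH 7.5, 80 mM KCl, 4 mM MgCl2, without or with constant ligand.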

[1] = input ligand: theophylline 20 uM
[2] = input ligand: tryptophan 2.4 mM
[3] = input ligand: theophylline 2 mM

Sequence	apparent KD of MS2 coat protein (input ligand: arginine 13.2 mM) [nM]	apparent KD of MS2 coat protein [1] [nM]	apparent KD of MS2 coat protein [2] [nM]	apparent KD of MS2 coat protein (input ligand: none) [nM]	apparent KD of MS2 coat protein [3] [nM]
AUAAGUAUGUUUUCGUGUUUUAUUACAGAUACCAGACUAUACGUUGUCCCUUGGCAGCUGGAUUACAUGAGGAUCACCCAUGUUG [#26 Exclusion-TheophyllineA]	19.9	32	23.1	–	–
AUAAUAAGGUGAUCCUAAGUCGUACCGUAACGAGGACCGGUACGGCCGCCACUCGAACAUGAGGAUCACCCAUGUAUGUACGACA [M'-T'-T-MS2-T'' - Design 6]	28.1	96.1	75.9	56.1	170
AUAAUGGGUUUCGGACUAUCAUGGAAUGAUACCAGAUACUUAGAAAUCCCUUGGCAGCAUGAGGACAUGAGGAUCACCCAUGUAU [Th A Ex t1]	41.9	78.9	71.4	–	–
AUACAUGAGGAUCACCCAUGUAUAGAUGAAGGAGCGACCAGAGGGUCAGGUAGGUCGCAUCACAUGAGGAUCACCCAUGUAUUUU [DOUBLE!!! :-D #10]	41.9	67.8	43.7	64	64.4
AUACAUGAGGAUCACCCAUGUCAUACAGAAGGAGCGUCACAUAAGACAGGUAGGUCGCUGAUAAAUGGAUUAUAGUUUAUGAUUA [JR_SSArginiA_Sub016]	17.5	29.6	18.7	18.6	20.3
AUACAUGAGGAUCACCCAUGUGAUGGCCGGCGAGGACCGGUACGGCCGCCACUCGUGAUCCGUCCUGAAAGCAAAGCUCUCAACA [Esraleri]	95	85.3	–	–	303
AUACAUGAGGAUCACCCAUGUUAUAGUGAAGGAGCGACAUUUAGGUCAGGUAGGUCGCACUAUAGUAUUAUAAUUCUUAGUUCUU [JR_ExcArginiA_Sub018]	14.7	27.9	22	18.4	21.8
AUACAUGAGGAUCACCCAUGUUAUAGUGAAGGAGCGACGUUUAUGUCAGGUAGGUCGCACUGUUGUUUAAUGAUUCUUGGAUCUU [#21 Exclusion - Arginine A]	15.3	22.5	16.4	13.2	13.5
AUAUAUACAUGAGGAUCACCCAUGUUAUUUCGAGGACCGGUACGGCCGCCACUCGAUAGAGUAGAAGUAACAUUUGUUAGAUGUA [JR_SSTryptoA_Sub011]	19.7	28.3	–	–	22
AUAUAUAUGCGAAGGAGCGGGAAAUAUAUAUAUAUAAUCCUAACAUGAGGAUCACCCAUGUCCCAGGUAGGUCGCGCAUAUAUAU [12.A]	68.2	88.5	72.2	74	87
AUAUGAUCAUGUGAUACCAGAAAUGGUAGUCUUCACUGGAUUACAUGAGGAUCACCCAUGUUCCCUUGGCAGCAUAUGAUCAUAU [#03 Exclusion-TheophyllineB]	31.7	68.2	43.9	–	–
AUAUUUAACGGAAGGAGCGCGGAAUAAUAAGUGGGUAAACAUGAGGAUCACCCAUGUAAACCGCAGGUAGGUCGCCGAAUAAUAA [AstrosEXyARgB#4]	71	115	68.4	89.4	86.1
AUAUUUAAUGGAAGGAGCGCGGAUAAUAAAGUGGGUAAACAUGAGGAUCACCCAUGUAAACCGCAGGUAGGUCGCCGAAAUAUAU [AstrosEXyARgB#8]	56.6	49.4	47	39	57.6
AUCACUGUGAAAGAUACCAGCGCCCUACCUAUCUUCUGUUACAUGAGGAUCACCCAUGUUCGCCCUUGGCAGCUUGAGAUGGAUC [theeternabot_exclusion_MS2_Theo_B_11]	44.2	75.1	44.9	–	–
AUCAUGGCCAUCGAUACCAGCUACAUGAGGAUCACCCAUGUAAACGGCCCGGUGAGAUGUAGCCCUUGGCAGCGAAGGGUCGAGG [Inenenatti]	14	24.3	14.6	18.6	72.3
AUCCACAGCCGAAGGAGCGCUAUAGGAUGACAUGAGGAUCACCCAUGUGUGUGAUGUGGAUAGCAGGUAGGUCGCGGAGUGGAUU [Exclusion - Arginine B (Freestyle 10)]	73	92.5	26.3	29.5	29.1
